Assay results: patent US20120252742A1
Blank lines part the entries; values can stand above or below the substance they belong to.

Key:
[1] = molecular target: SIY peptide on H-2Kb (mouse); experiment: value stated in the legend of FIG. 16; method not given
[2] = molecular target: human immunodeficiency virus (HIV) Gag protein (SL9) peptide on HLA-A*02:01 (human); experiment: SL9 peptide titrated on T2 cells, stained with 100 nM multi-biotinylated scTCR (FIG. 11C); soluble, other
[3] = molecular target: SL9 (HIV-Gag)/HLA.A2 streptavidin:phycoerythrin tetramer (human immunodeficiency virus; human); experiment: cell-based or functional assay
[4] = molecular target: SIY peptide on H-2Kb (mouse); experiment: value cited from Chervin et al. 2009 (ref 18); method not given
[5] = molecular target: SIY peptide on K^b of antigen presenting cells (T2-K^b); experiment: cell-based or functional assay
[6] = molecular target: SIY peptide on H-2Kb (mouse); experiment: IL-2 release; transduced 58-/- cells, SIY peptide on T2-K^b (FIG. 17); fusion: CD28, CD3ζ, LCK
[7] = molecular target: SL9 peptide on HLA.A2 of peptide-loaded HLA.A2+ cells (T2) (human immunodeficiency virus; human); experiment: flow cytometry: SL9 peptide titrated on T2 cells, 100 nM biotinylated scTCR; the reference value is from the literature
[8] = molecular target: SL9 peptide on HLA.A2 of peptide-loaded HLA.A2+ cells (T2) (human immunodeficiency virus; human); experiment: flow cytometry: T2 cells loaded with 10 uM SL9, biotinylated scTCR, streptavidin:PE
[9] = molecular target: SL9 peptide on HLA.A2 of peptide-loaded HLA.A2+ cells (T2) (human immunodeficiency virus; human); experiment: flow cytometry: T2 cells loaded with 10 uM SL9, titration of biotinylated scTCR, streptavidin:PE

- Kd [1]: 30000 nM
Substance: 2C (full-length αβ TCR)

- lowest SL9 peptide concentration detected [2]: 10 nM
Substance: 868-Z11

- T cell activation by plate-bound pepMHC tetramer, EC50 [3]: 4 nM
Substance: 868-Z11 scTCR (Vβ-linker-Vα) fused to CD28, CD3ζ, LCK, on the surface of transduced T cells

- Kd [1]: 30 nM
- Kd [4]: 16 nM
Substance: m33 (full-length αβ TCR)

- IL-2 release, lowest SIY peptide concentration that activates [5]: 1 nM
Substance: m33 scTCR (Vα-linker-Vβ) fused to CD28, CD3ζ, LCK, on the surface of 58-/- T cell hybridoma

- lowest activating peptide concentration [6]: 1 nM
Substance: m33 scTCR with 2C-T7 stabilizing mutations

- fold improvement in limit of detection relative to the full-length 868 TCR variant described by Varela-Rohena et al [7]: 5 fold
- lowest scTCR concentration at which peptide loaded cells were detected [8]: 0.1 nM
- EC50 [9]: 4 nM
Substance: soluble, biotinylated 868-Z11 single-chain TCR expressed in E. coli (pET28a) and refolded
